Reference: patent US20230052256A1

Legend:
[1] = molecular target: recombinant human FGFR1b-Fc (R&D Systems) (human) (UniProt P11362); assay: SPR (Biacore T200), hFGFR1b-Fc amine-coupled to CM5 chip, antibody injected
[2] = molecular target: recombinant human FGFR1b-Fc (R&D Systems) (human) (UniProt P11362); assay: SPR (Biacore T200), hFGFR1b-Fc amine-coupled to a CM5 chip, antibody injected at 0-200 nM
[3] = molecular target: human FGFR2b (beta)-Fc, human Fc fusion (human); assay: SPR (Biacore T200), hFGFR2b-Fc amine-coupled to a CM5 chip, antibody injected at 0-200 nM

Chain of recombinant human FGFR1b-Fc (R&D Systems) (human) (P11362 other isoform, or with tags, fused parts or gaps limits assumed): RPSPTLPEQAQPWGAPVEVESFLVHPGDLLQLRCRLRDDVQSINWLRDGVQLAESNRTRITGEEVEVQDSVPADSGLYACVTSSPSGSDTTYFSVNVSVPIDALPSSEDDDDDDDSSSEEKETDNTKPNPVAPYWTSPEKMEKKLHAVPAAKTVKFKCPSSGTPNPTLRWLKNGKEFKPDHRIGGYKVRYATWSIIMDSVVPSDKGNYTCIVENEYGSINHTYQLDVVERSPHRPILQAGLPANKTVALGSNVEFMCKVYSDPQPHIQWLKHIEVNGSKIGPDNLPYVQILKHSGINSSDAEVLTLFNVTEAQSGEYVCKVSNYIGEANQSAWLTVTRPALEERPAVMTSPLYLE

Kd [1]: 225 nM | koff [2]: 0.00746 s⁻¹ | kon [2]: 33200 M⁻¹ s⁻¹ | Kd [3]: 0.75 nM | koff [3]: 7.77e-05 s⁻¹ | kon [3]: 104000 M⁻¹ s⁻¹
B1: FPA144 (clinical stage anti-human FGFR2b specific antibody) (antibody, INN chains, looked up, V domains shown)
VH: QVQLVQSGAEVKKPGSSVKVSCKASGYIFTTYNVHWVRQAPGQGLEWIGSIYPDNGDTSYNQNFKGRATITADKSTSTAYMELSSLRSEDTAVYYCARGDFAYWGQGTLVTVSS
VL: DIQMTQSPSSLSASVGDRVTITCKASQGVSNDVAWYQQKPGKAPKLLIYSASYRYTGVPSRFSGSGSGTDFTFTISSLQPEDIATYYCQQHSTTPYTFGQGTKLEIK
